This data set relates to c1ccc([C@H]2CO2)cc1. Kind of data set: colorimetric periodate-coupled diol assay, A290, steady state. It is filed as biochemical, Streptomyces globisporus. To be noted: pH 8.0, 50 mM sodium phosphate, 25 °C, 3 mM sodium periodate.

What is called Km is the substrate concentration at which the rate is half of its maximum. The kcat/Km is the second-order rate constant that governs catalysis at low substrate concentration.

As for SgcF (Streptomyces globisporus; Q237M), the Km is listed as 4.1 ± 0.8 mM and the kcat/Km was 780 M⁻¹ s⁻¹.

Values taken from paper PMC3849214.
